No end group written: not given here. *: point of attachment. Biotin = O=C1N[C@H]2[C@H](CS[C@H]2CCCCC(=O)*)N1
Key:
[1] = molecular target: T1, Biotin PSGL-1(42-62) peptide, unmodified (human, C-terminal Lys-biotin); experiment: ELISA, plate-bound target
T1 construct: Residues 42-62 followed by GGGK-biotin; also called WT; wild-type
T1 peptide: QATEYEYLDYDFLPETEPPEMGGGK
Protocol: (§1) Two ELISA methods were performed. One procedure detected mAb binding to its plate-immobilized target and the other measured the immobilized antibody's ability to capture biotinylated PSGL-1₄₂₋₆₂. […] The plate was incubated for 45 min at 37° C. Plates were washed 3 times with wash buffer (PBS containing 0.05% tween 20, pH 7.4) and a single concentration (2 to 500 nM) or serially diluted (0.002-100 nM) anti-PSGL-1 mAb was added (25 ul/well) in assay buffer into appropriate wells. The plate was incubated for 45 min at 37° C., washed 3 times, and an appropriate HRP-conjugated secondary antibody added (25 ul/well) (HRP goat anti-mouse or anti-human IgG). After 45 min incubation at 37° C., the plate was washed, and antibody bound to plate-immobilized target was determined at A450 nm using HRP substrate (3,3′,5,5′-etramethylbenzidine (TMB)). For each antibody, duplicate values were averaged and assay background was subtracted. Except for the following, ELISAs involving plate-immobilized mAb capturing of biotinylated PSGL-1₄₂₋₆₂ peptides was performed in the same manner as described above: 3 ug/mL/25 ul per well of mAb was coated directly onto microtiter plate wells; biotinylated unmodified or sulfotyrosine PSGL-1₄₂₋₆₂ was serially diluted (3 nM-3 uM) into appropriate wells, and antibody-bound peptide was detected using HRP-streptavidin (Jackson Immunoresearch, Cat. #016-030-084).

[2] = molecular target: T2, Biotin Y46,48,51(SO3) PSGL-1(42-62) peptide (human, sulfotyrosine at Y46, Y48 and Y51; C-terminal Lys-biotin); experiment: ELISA, plate-bound target
T2 construct: also called fully sulfated N-terminal PSGL-1 peptide
T2 peptide: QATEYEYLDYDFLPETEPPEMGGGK
Protocol: as §1

[3] = molecular target: T1, Biotin PSGL-1(42-62) peptide, unmodified; experiment: ELISA, plate-bound mAb captures biotin peptide
Summary of the method: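 Direct format: anti-PSGL-1 mAb at a single concentration (2–500 nM) or serially diluted (0.002–100 nM) on immobilized target, detected with HRP anti-IgG and TMB at A450; 45 min steps at 37° C. Capture format: coated mAb (3 ug/mL) binds biotinylated unmodified or sulfotyrosine peptide (3 nM–3 uM), detected with HRP-streptavidin.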

[4] = molecular target: T3, Biotin PSGL-1(56-70) peptide (human); experiment: ELISA, plate-bound biotin peptide
T3 peptide: Ac-ETEPPEMLRNSTDTTGK(Biotin)

B1: 20I15 (antibody, V domains shown)
VH: EVKLVESGGGLVQPGGSLSLSCAASGFTFTDYYMSWVRQPPGKALEWLGFIRNKANGYTTEYSASVKGRFTISRDNSQSILYLQMNALRAEDSATYYCARTYLRRGYFDVWGTGTTVTVSS
VL: DIVLTQSPASLAVSLGQRATISCRASKSVSTSGYSYMHWFQQKPGQPPKLLIYLASNLESGVPARFSGSGSGTDFTLNIHPVEEEDAATYYCQHSRELPLTFGAGTKLELK
notes: From mouse immunisation; only variable domains given; also called 20115
Work on B1 yielded an EC50 [1] of ~30 nM, an EC50 [2] of 0.62 nM and an EC50 [3] of ~3000 nM.

B2: 2E12 (antibody, V domains shown)
VH: QVQLQQSGAELARPGASVKLSCKASGYTFTNYGLNWVKQRTGQGLEWIGEIYPRSGNTYYNEKFKGKATLTADKSSSTAYMQLSSLTSEDSAVYFCATEGAYWGQGTLVTVSA
VL: DIVMTQTPLTLSVTIGQPASISCKSSQSLLHGNGKTYLNWLLQRPGQSPKLLIYLVSKLESGIPDRFSGSGSGTDFTLEISRVEAEDLGIYYCLQSTHFPRTFGGGTKLEIK
notes: Mouse hybridoma mAb; only variable domains given
B2: binds [4].

B3: 5E12 (antibody, V domains shown)
VH: EIQLQQSGAELVRPGASVKLSCTASGFNIKDDYIHWVKQRPEQGLEWIGRIDPANGNTKSAPKFQDKATITADTSSNTAYLHLSSLTSEDTAVYYCSIRFAYWGQGTLVTVSA
VL: DVVMTQTPLSLSVSLGDQASISCRSSQSLVYRNGDTYLHWFLQKPGQSPKLLIYKVSNRFSGVPDRFSGSGSGTDFTLKISRVEAEDLGIYFCSQNTHVPYTFGGGTKLEIK
notes: as for B2
B3: binds [4].

Reference: patent publication US20220396632A1 (VERSEAU THERAPEUTICS, published 2022)
